Test results as given in paper PMC4250834 (Cell reports, 2014).
No end group written: not given here.

Target: T1, recombinant Clp1 (alone) (S. cerevisiae, UniProt Q08685 1-445)
T1 sequence (looked up): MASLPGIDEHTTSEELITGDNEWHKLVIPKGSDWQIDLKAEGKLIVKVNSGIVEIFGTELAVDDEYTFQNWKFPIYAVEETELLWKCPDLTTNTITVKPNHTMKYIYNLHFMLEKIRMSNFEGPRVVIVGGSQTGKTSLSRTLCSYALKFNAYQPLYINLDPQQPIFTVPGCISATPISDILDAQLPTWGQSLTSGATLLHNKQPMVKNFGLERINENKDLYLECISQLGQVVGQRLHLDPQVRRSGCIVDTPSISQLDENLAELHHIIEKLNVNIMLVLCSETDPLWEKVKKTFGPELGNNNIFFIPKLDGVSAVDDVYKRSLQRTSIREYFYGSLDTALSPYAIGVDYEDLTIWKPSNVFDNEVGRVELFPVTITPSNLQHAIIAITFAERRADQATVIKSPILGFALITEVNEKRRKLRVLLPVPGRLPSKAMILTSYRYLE
Test: pull-down

**Q.** Does TTPISPDEEELGQRTAYHSKRDASTPLRS (peptide, UniProt P08518 915-943, looked up, also: biotin, site not given here) [biotinylated flap loop peptide (Rpb2 amino acids 915–943)] bind?
**A.** binds
